# Experimental data reported in the nanobody polyreactivity screen of Harvey et al. (2022).
# Test: yeast display, Sf9 membrane polyspecificity reagent, FACS + sequencing; frameworks hold sequencing errors
# Method in brief: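 Galactose-induced (36–48 hours) yeast carrying a synthetic nanobody display library were exposed to 10% biotinylated, detergent-solubilized Sf9 membrane reagent at 4 °C for 1 hour. FACS followed streptavidin microbead enrichment, using low and high (top ~1%) gates for expression (anti-HA) and reagent binding (streptavidin). Colony PCR, MiSeq 2 × 250 sequencing and CDR-length filtering followed. Labels for polyreactivity reflect the gate of origin.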
row,Sequence,polyreactivity (PSR sort gate)
1,QVQLVESGGGLVQAGGSLRLSFAASGFTFYPYTKGWYRQAPGKEREFVAAISWNCGSTYYADSVKGRFTISRDNAKHTVYLQMNRLKPEDTAVYYCAADFDASRYEYWGQGTQVTVSS,low polyreactivity
2,QVQLVETGGGLVQAGGSLRLSCAASGFIFSTYAMGWSRQAPGKERELVAAISWSGGRTNYADSVKGRFTISRDHAKNTVYLQMNSLKPEDTAVYYCAVGGERGARIGSNHRGSRYDYWGQGTQVTVSS,high polyreactivity
3,QVQLVESGGGLVQAGGSLRLSCAASGFTFALYAMGWYRQAPGKERELVASIDNGVSTNYADSVKGRFTISRDNAKNTVYLQMTSLKPEDTAVYYCAKGPGYGLYKLLSYDSWGQGTQVTVSS,low polyreactivity
4,QVQLVESGGGLVQAGGSLRLSCAASGITFNDYTMGWYRQGPGKERELVAVNTKTGSRTYYADSVKGRFTISRDNAKNTVYLQMNSLKPEDTAVYYCNALYYIHYYQGYGYWGQGTQVTVSS,high polyreactivity
5,QVQLVESGGGLVQAGGSLRLSCAASGFTFRIYAMGWYRQAPGKERELVAAISWSGGSTYYADSVKGRFTISRDNAKNTVYLQMNSLKPEDTAVYYCATDSHRSQRHYAYDGDYWGQGTQVTVSS,high polyreactivity
6,QVQLVESGGGLVQAGGSLRLSCAASGSILAGYAMGWYRQAPGKERELVAAITGGYVRSYYADSVKGRFTISRDNAKNTDYLQMNSLKPEDTAVYYCAATWGSVQKGTYYYWGQGTQVTVSS,low polyreactivity
7,QVQLVESGGGLVQAGGSLRLSCAASGSTFWPNAMGWYRQAPGKERELVAGITTSSGSTFYAHSVKGRFTISRDNAKNTVYLQMNSLKPEDTAVYDCNARVRRRRYKYDYWGQGTQVTVSS,high polyreactivity
8,QVQLVESGGGLVQAGGSLRLSCAASGSIFGGYAMGWYRQAPGKERELVAAITWGGGSTYYADSVKGRFTISRDNAKNTVYLQMNSLKPEDTAVYYCAADRSWYDWEDDYWGQGTQVTVSS,low polyreactivity
9,QVQLVESGGGLGQAGGSLRLSCAASGFIFQANAMGWYRQAPGKERELVAAIDDGDSTYADSVKGRFTISRDNAKNTVYLQMNSLKPEDTAVSYCAPRRNRSYDYWGQGTQVTVSS,low polyreactivity
10,QVPLVESGGGLVQAGGSLRLSCAACGFIFGSYSMGWYRQAPGKERELVAAITSDGNTDYADSVKGRFTISRDNAKNTVYLQMNSLKPEDTAVYYCATDWVDHYDYWGQGTQVTVSS,low polyreactivity
11,QVQLVESGGGLVQAGGSLRLSCASSGRTFWYYAMGWYRQPPGKERELVAAITSGGSTNYADSVKGRFTISRDNAKNTVYLQMNSLKPEDTAVYYCATDNPVFEYDYWGQGTQVTVSS,low polyreactivity
12,QVQLVESGGGLVQAGGSLRLSCAASGFTIRSYVMGWYRQAPGKEREFVAAISYRGGGTNYADSVKGRFTISRDNAKNTVYLQMNSLKPEDTAVYYCNARSGSSKSGYYYWGQGTQVTVSS,high polyreactivity
13,QVQLVESGGGLVQAGGSLRLSCAASGSIFIYYAMGWYRQAPGKERELVAAIDYSGDSTYYADSVKGRFTISRDNAKNTVYLQMNSLKPEDTAVYYCAVYYAGWGDYWGQGTQVTVSS,low polyreactivity
14,QVQLVESGGGLVQAGGSLRLSCAASGSTFVRYAMGWDRQAPGTEGSWVAAISVDGDSTYYADSVKGRFTISRDNAKNTVYFQLNSLKPEDTAVYYCNVPLWDYYPRFPLHDYWGQGTQVTVSA,low polyreactivity
15,QVQLVESGGGLVQAGGSLRLSCAASGFTFPYYAMGWYRQAPGKERELVAAISWDGGITYYADSVKGRFTISRDNAKNTVYLQMNSLKPEDTAVYYCNVEGWYDYDYWGQGTQVTVSS,high polyreactivity
16,QVQLVESGGGLVQAGGRLRLSSAASGRIFTNYAMGWYRQAPGKERELVARISKRGGSTYYADSVKGRLTFSRDNAKNTVYLQMNSLKPEDTAVYYCNAVSNLYYYWGQGTQVTVSS,high polyreactivity
17,QVQLVESGGGLVQAGGSLRLSCAASGITIRFYAMGWYRQAPGKERELVAAITRGGSTTYADSVKGRFTISRDNAKNTVYLQMNSLKPEDTAVYYCNAQYQSGYYTSYPDRFDYWGQGTQVTVSS,low polyreactivity
18,QVQLVESGGGLVQAGGSLRLSCAASGRTFDHNAMGWYRQAPGKERELVAAINSSGGRTYYADSVKGRFTISRDNAQNTVYLQMNSLQPEDTAVYYCATVNVRGPPYDYWGQGTQVTVSS,high polyreactivity
19,QVHLVESGGGLVQAGGSLRLSCAASGRIFSLNAMGCDRQAPGKERELVAAISTGGASTYYADSVKGRFTISRDNAKNTVYLQMNSLKPEDTAVYSCAADLGYEYDYWGQGTQVTVSS,high polyreactivity
20,QVQLVESGGGLVQAGGSLRLSCAASGRTFYGNAMGWYRQAPGKERELVAGITRGGSTYYADSVKGRFTISRDNAKITVYLQMNSLKPEDTAVYYCAARAYYARFLMGYWGQVTQVTVSS,high polyreactivity
21,QVQLVESGGGLVQAGGSLRLSCAASGSTFRYNAMGWYRQAPGKERELVAGISYRGGTTYYADSVKGRFTISRDNAKNTVYLQMNSLKPEDTAVYYCAAGASSPGGWFYYWGQGTQVTVSS,high polyreactivity
22,QVQLVESGGRLVQAGGSLRLSCAASGITFYYYAMGWYRQAPGKERELVAAISVSGGSTYYADSVKGRFTISRDNAKNTVYLQMNSLKPEDTAVYYCAAADLLSYTYPEYDYWGQGTQVTVSS,low polyreactivity

row,Sequence,polyreactivity (PSR sort gate)
1,QVQLVESGGGLVQAGGSLRISCAASGSIFYVYAMGLYRQAPGKERELVAAISRRGARTYYADSVKGRFTISRDNAKNTVYLQMNSLKPEDSAVYYCNADQYYTVGYSAEYEYWGQGTQVTVSS,low polyreactivity
2,QVQLVESGGGLVQAGGSLRLSCAASGRPFYVYAMGWYRQAPGKERELVASIRRSGGITYYADSVKGRFTISRDNAKNTVYLQMNSLKPEDTAVYYCNARRGPGRREYDYWGQGTQVTVSS,high polyreactivity
3,QVQLVDSGGGLVQAGGSLRFSCAASGSIFYSNAMGWYRQAPGKERELVAAISDGGTSTYYADSVKVRFTISRDNAKNTVYLQMNSLKPEDTAVYYCAAESTLQDWNWYKYYYWGQGTQVTVSS,low polyreactivity
4,QVQLVESGGGLVQAGGSLRLSCAASGFIFSPYAMGWYRQAPGKVRELVAAISRRGGSTYYADSVKGRFTISRDNAKNTVYLQMNSLKPEDTAVYYCAAVYGASQVDYDYWGQGTQVTVSS,high polyreactivity
5,QVQLVESGGGLVQAGGSLRLSCAASGLIFGGNAMGWYRQAPGKERELVAAISRSTGRTYYADSVKGRFTISRDTAKNTVYLQMNSLKPEDTAVYYCNAVGYAFPSYDSWGQGTQVTVSS,high polyreactivity
6,QVQLVESGGGLVQAGGTLRLRCAASGFTFRYYVMRWYRQAPGKERELVAAITSGGSTNYADSVKGRFSISRDNAQNTVYLLMNSLKPEDTAVYYCAAGLSYRHNYWGQGTQVTVSS,low polyreactivity
7,QGQLVESGGGLVQAGGSLRLSCAASGSIFRPYPMGWYRQAPGKERELVATISSTGITNYADSVKGRFTISRDNAKNTVYLQMNSLKPEDTADYYCSAGLWYSYDYWGQGTQVTVSS,high polyreactivity
8,QVQLVESGGGLVQAGGSLRLSCAASGSTFYNYAMGWYRQAPGKERELVASITWNGGSTYYADSVKGRFTISRDNAKNTVYLQMNSLKPEDTAVYYCAAEWTWTYPYDYWGQGTQVTVSS,low polyreactivity
9,QVQLVESGGGLVQAGGSLRLSCAASGFTFIYYAMGWYRQAPGKERELVAAISASGGSTYYADSVKGRFTISRDNSKNTVYLQMNSLKPEDTAVYYCDAYRVWYRGYPMGYWGQGTQVTVSS,high polyreactivity
10,QVQLVESGGGLVQAGGSLRLSCAASGRIFNFYAMGWYRQAPGKERELVASITGSTGSTYYADSVKGRFTISRDNAKNTVYLQMNSLKPEDTAVYYCNTYRVTRDYYWGQGTQVTVSS,low polyreactivity
11,QFQLVESGGGLVQAGGSLRLSCAASGRIFASIGMGWYRQAPGKEREFVAAINRSGGSTYYADSVKGRFTISRVNAKNSVYLQMNSLKPEDTAVYYCNKDYLYSYLWGWKVYSYDYWGQGTQVTVSS,low polyreactivity
12,QVQLVESGGGLVQAGGSLRLSCAASGGTFKTYAMGWYRQAPGKERELVAAITSSSSRTHYADSVKGRFTISRDNAKYTVYLQMNSLKPEVTAVYYCAAAIPSYTRTGYWGQGTQVTVSS,high polyreactivity
13,QVQLVESGGGLVQAGGSLRLSCAASGRIFYKYAMGWYRQAPGKERELVAVINRGGTTYYADSVKGRFTISRDNGKNTVYLQMNSLKPDDTAVYYCNTVADYRRFGYWGQGTQVTVSS,high polyreactivity
14,QVQLVESGGGLVQAGGSLRLSCAASGRTFWGYVKGWYRQAPGKERELVAAITSSTGRTYYADSVKGRFTISRDNAKNTVYLQMNSLKPEDTAVYYCAAGYNGYGLQYYYWGQGTQVTVSS,high polyreactivity
15,QVQLVESGGGLVQAGGSLRLSCAASGIIFGTYAMGWYRQAPGKERELVAAIRRSGTGTYYADSVKGRFTISRDNAKNTVYLQMNSLKPEDTAVDYCNVVRSYAYDSWGQGTQVTVSS,high polyreactivity
16,QVQLVESGGGLVQAGGSLRLSCAASGRIFPRNTMGRYRQAPGKERELVAGITSGGGTYYADSVKGRFTISRDNAKNTVYFQMNRLKPEDTAVFYCAARPWRSRYYGGLGRRFDYWGQGTQVTVSS,high polyreactivity
17,QVQLVESGGGLVQAGGSLRLSCAASGFIFGYYAMGCYTQAPGKERELVARSTSSGGSTYYADSVKGRFTISRDNAKTTVYLQMNSLKPEDTAVYYCAKSPRAPRYMPYGYWGQGSQVTVSS,high polyreactivity
18,QVQLVESGGGLVLAGGSLSLSCAASGSIFNWYAMGWYRKAHGKERELVAAISWRGGSTYYADSVKGRFTISRDNAINSVYFQMNSLKPEDTAVYYCASDGGGDHMDYWGQGTQVSVSS,high polyreactivity
19,QVQLVESGGGLVQAGGSLRLSCAASGLIFSYNAMGWYRQAPGKERELVAAISANGGRTYYADSVKGRFTISRDNAKNTVSLQMNSLKPEDTAVYYCAAQGSRKLFYTDSGYWGQGTQVSVSS,high polyreactivity
20,QVQLVESGGGLVQAGGSLRLRCAASGFIFPQYAMGWYRQAPGKEREKVAAISWSGTRTYYADSVKGRFTISRDNAKNTVYLQMNSLKPEDTADYYCAARIDRQYRWTGFGYWGQGTQVTVSS,high polyreactivity
21,QVQLVESGGGLVQAGGSLRLSCAASGSTFVTYAMGWYRQAPGKERELVAAISSGGGNTYYADSVKGRFTISRDNAKNTVYLQMNSLKPEDSAVYYCAAVNPRSEYDYWGQGTQVTVSS,high polyreactivity
